Assay results as given in patent publication US6956104B2, “Protein Rim2” (JCR Pharmaceuticals Co., Ltd., priority 1999, dated 2005).

Tested on: PC12 cells
Assay: GH secretion from transfected PC12 cells
Assay type: cell-based
Details: for 8-Br-cAMP-induced, Ca2+-dependent GH secretion: 8-Br-cAMP 1 mM, GH released relative to total cellular GH, n=9; for forskolin-induced GH secretion relative to wild-type cAMP-GEFII: high K+, 15-min incubation, increment above basal, wild-type = 100%
Protocol: GH secretion from transfected PC12 cells was performed as described in K. Korake et al., J. Biol. Chem., 272:29407(1997). Expression plasmid vectors (pSR α) for wild-type cAMP-GEFII, mutant cAMP-GEFII (T810A), and the double mutant cAMP-GEFII (G114E, G422D) were prepared. As a control, β-galactosidase (β-gal) was used. […] were transfected with GH expression vector (pXGH5: Nichols Institute) plus each vector described above, using LipofectAMINE.
PC12 cell were incubated with a low […] (4.7 mM) or high K^+ (60 mM) solution, in the presence or absence of forskolin (50 μM) or 8-bromoadenosine 3′,5′ cyclic monophosphate (8-Br-cAMP)(1 mM). Forskolin or 8-Br-cAMP was added 10 min before the incubation with a low or high K^+ solution. In some experiments, the PKA inhibitor H-89 (10 μM) was added 10 min before forskolin stimulation.

## Nc1ncnc2c1nc(Br)n2[C@@H]1O[C@@H]2COP(=O)(O)O[C@H]2[C@H]1O [8-Br-cAMP, 8-bromoadenosine 3′,5′ cyclic monophosphate, reference compound]
cAMP-GEFII-transfectant
  8-Br-cAMP-induced, Ca2+-dependent GH secretion: 34.9±1.3%
Control (β-galactosidase-transfectant)
  8-Br-cAMP-induced, Ca2+-dependent GH secretion: 25.1±1.8%

## O=S(=O)(NCCNC/C=C/c1ccc(Br)cc1)c1cccc2cnccc12 [H-89, reference compound]
H-89 10 μM, cAMP-GEFII-transfected and β-galactosidase-transfected PC12 cells
  effect on high K+-induced GH secretion: reduced

B1: cAMP-GEFII: cAMP sensor protein, GDP/GTP exchange factor II; wild type transfected into PC12 cells (protein)
chain: MVAAHAAHSQSSAEWIACLDKRPLERSSEDVDIIFTRLKGVKAFEKFHPNLLRQICLCGYYENLEKGITLFRQGDIGTNWYAVLAGSLDVKVSETSSHQDAVTICTLGIGTAFGESILDNTPRHATIVTRESSELLRIEQEDFKALWEKYRQYMAGLLAPPYGVMETGSNNDRIPDKENTPLIEPHVPLRPAHTITKVPSEKILRAGKILRIAILSRAPHMIRDRKYHLKTYRQCCVGTELVDWMIQQTSCVHSRTQAVGMWQVLLEDGVLNHVDQERHFQDKYLFYRFLDDEREDAPLPTEEEKKECDEELQDTMLLLSQMGPDAHMRMILRKPPGQRTVDDLEIIYDELLHIKALSHLSTTVKRELAGVLIFESHAKGGTVLFNQGEEGTSWYIILKGSVNVVIYGKGVVCTLHEGDDFGKLALVNDAPRAASIVLREDNCHFLRVDKEDFNRILRDVEANTVRLKEHDQDVLVLEKVPAGNRAANQGNSQPQQKYTVMSGTPEKILEHFLETIRLEPSLNEATDSVLNDFVMMHCVFMPNTQLCPALVAHYHAQPSQGTEQERMDYALNNKRRVIRLVLQWAAMYGDLLQEDDVAMAFLEEFYVSVSDDARMMAAFKEQLPELEKIVKQISEDAKAPQKKHKVLLQQFNTGDERAQKRQPIRGSDEVLFKVYCIDHTYTTIRVPVAASVKEVISAVADKLGSGEGLIIVKMNSGGEKVVLKSNDVSVFTTLTINGRLFACPREQFDSLTPLPEQEGPTTGTVGTFELMSSKDLAYQMTTYDWELFNCVHELELIYHTFGRHNFKKTTANLDLFLRRFNEIQFWVVTEVCLCSQLSKRVQLLKKFIKIAAHCKEYKNLNSFFAIVMGLSNVAVSRLALTWEKLPSKFKKFYAEFESLMDPSRNHRAYRLTAAKLEPPLIPFMPLLIKDMTFTHEGNKTFIDNLVNFEKMRMIANTARTVRYYRSQPFNPDAAQANKNHQDVRSYVRQLNVIDNQRTLSQMSHRLEPRRP
modifications: left off: large carriers
notes: cAMP sensor protein, GDP/GTP exchange factor II; wild type transfected into PC12 cells
H-89 10 μM, forskolin 50 μM
  forskolin-induced, Ca2+-dependent GH secretion with PKA inhibitor H-89, versus control cells: significantly higher
Compared to the control transfectant
  effect on Ca2+-dependent (60 mM K+) secretion of cotransfected GH: did not alter
Forskolin 50 μM
  effect on forskolin-induced, Ca2+-dependent GH secretion: significantly enhanced

B2: cAMP-GEFII (G114E, G422D): double mutant cAMP-GEFII in which both cAMP binding sites are disrupted (protein, UniProt Q9EQZ6 1-1011, looked up, variant G114E G422D)
Rap guanine nucleotide …: MVAAHAAHSQSSAEWIACLDKRPLERSSEDVDIIFTRLKGVKAFEKFHPNLLRQICLCGYYENLEKGITLFRQGDIGTNWYAVLAGSLDVKVSETSSHQDAVTICTLGIGTAFEESILDNTPRHATIVTRESSELLRIEQEDFKALWEKYRQYMAGLLAPPYGVMETGSNNDRIPDKENTPLIEPHVPLRPAHTITKVPSEKILRAGKILRIAILSRAPHMIRDRKYHLKTYRQCCVGTELVDWMIQQTSCVHSRTQAVGMWQVLLEDGVLNHVDQERHFQDKYLFYRFLDDEREDAPLPTEEEKKECDEELQDTMLLLSQMGPDAHMRMILRKPPGQRTVDDLEIIYDELLHIKALSHLSTTVKRELAGVLIFESHAKGGTVLFNQGEEGTSWYIILKGSVNVVIYGKGVVCTLHEGDDFDKLALVNDAPRAASIVLREDNCHFLRVDKEDFNRILRDVEANTVRLKEHDQDVLVLEKVPAGNRAANQGNSQPQQKYTVMSGTPEKILEHFLETIRLEPSLNEATDSVLNDFVMMHCVFMPNTQLCPALVAHYHAQPSQGTEQERMDYALNNKRRVIRLVLQWAAMYGDLLQEDDVAMAFLEEFYVSVSDDARMMAAFKEQLPELEKIVKQISEDAKAPQKKHKVLLQQFNTGDERAQKRQPIRGSDEVLFKVYCIDHTYTTIRVPVAASVKEVISAVADKLGSGEGLIIVKMNSGGEKVVLKSNDVSVFTTLTINGRLFACPREQFDSLTPLPEQEGPTTGTVGTFELMSSKDLAYQMTTYDWELFNCVHELELIYHTFGRHNFKKTTANLDLFLRRFNEIQFWVVTEVCLCSQLSKRVQLLKKFIKIAAHCKEYKNLNSFFAIVMGLSNVAVSRLALTWEKLPSKFKKFYAEFESLMDPSRNHRAYRLTAAKLEPPLIPFMPLLIKDMTFTHEGNKTFIDNLVNFEKMRMIANTARTVRYYRSQPFNPDAAQANKNHQDVRSYVRQLNVIDNQRTLSQMSHRLEPRRP
Forskolin 50 μM
  forskolin-induced GH secretion relative to wild-type cAMP-GEFII: ~40%

B3: cAMP-GEFII (T810A): mutant cAMP-GEFII in which a potential PKA phosphorylation site is disrupted (protein, UniProt Q9EQZ6 1-1011, looked up, variant T810A)
Rap guanine nucleotide …: MVAAHAAHSQSSAEWIACLDKRPLERSSEDVDIIFTRLKGVKAFEKFHPNLLRQICLCGYYENLEKGITLFRQGDIGTNWYAVLAGSLDVKVSETSSHQDAVTICTLGIGTAFGESILDNTPRHATIVTRESSELLRIEQEDFKALWEKYRQYMAGLLAPPYGVMETGSNNDRIPDKENTPLIEPHVPLRPAHTITKVPSEKILRAGKILRIAILSRAPHMIRDRKYHLKTYRQCCVGTELVDWMIQQTSCVHSRTQAVGMWQVLLEDGVLNHVDQERHFQDKYLFYRFLDDEREDAPLPTEEEKKECDEELQDTMLLLSQMGPDAHMRMILRKPPGQRTVDDLEIIYDELLHIKALSHLSTTVKRELAGVLIFESHAKGGTVLFNQGEEGTSWYIILKGSVNVVIYGKGVVCTLHEGDDFGKLALVNDAPRAASIVLREDNCHFLRVDKEDFNRILRDVEANTVRLKEHDQDVLVLEKVPAGNRAANQGNSQPQQKYTVMSGTPEKILEHFLETIRLEPSLNEATDSVLNDFVMMHCVFMPNTQLCPALVAHYHAQPSQGTEQERMDYALNNKRRVIRLVLQWAAMYGDLLQEDDVAMAFLEEFYVSVSDDARMMAAFKEQLPELEKIVKQISEDAKAPQKKHKVLLQQFNTGDERAQKRQPIRGSDEVLFKVYCIDHTYTTIRVPVAASVKEVISAVADKLGSGEGLIIVKMNSGGEKVVLKSNDVSVFTTLTINGRLFACPREQFDSLTPLPEQEGPTTGTVGTFELMSSKDLAYQMTTYDWELFNCVHELELIYHTFGRHNFKKTAANLDLFLRRFNEIQFWVVTEVCLCSQLSKRVQLLKKFIKIAAHCKEYKNLNSFFAIVMGLSNVAVSRLALTWEKLPSKFKKFYAEFESLMDPSRNHRAYRLTAAKLEPPLIPFMPLLIKDMTFTHEGNKTFIDNLVNFEKMRMIANTARTVRYYRSQPFNPDAAQANKNHQDVRSYVRQLNVIDNQRTLSQMSHRLEPRRP
Forskolin 50 μM
  forskolin-induced GH secretion relative to wild-type cAMP-GEFII: not affected
